Reference: patent US20130004527A1

Target: IgE in a panel of sera from 22 patients allergic to ragweed (human)
Assay: competition ELISA; tested as AllerR mix with 22 sera

highest concentration without competition	Binder
> 10 µM	AllerR4.3 (peptide) peptide: MHDVKVNPGGLIKSNDGPAAPRAGSDGDAISISGSSQIWIDHCSLSKSVDGLVDAKLGTTR
> 10 µM	AllerR2 (peptide) peptide: DVANPKEGTLRFGAAQNRPLWIIFERDMVIRLDKEMVVNSDKTIDGRGAKVE
> 10 µM	AllerR1 (peptide) peptide: TSGAYNIIDGCWRGKADWAENRKALADCAQGFGKGTVGGKDGDIYTVTSELDDDVANPK
> 10 µM	TIDGRGAKVEIINAGFTLNGVKNVIIHNINMHDVKVNPGGLIK [AllerR3]
> 10 µM	AllerR5 (peptide) peptide: TVAFNTFTDNVDQRMPRCRHGFFQVVNNNYDKWGSYAIGGSASPTILSQGNRFCAPDERSKKNVLGRHGE
> 10 µM	AllerR6 (peptide) peptide: VLGRHGEAAAESMKWNWRTNKDVLENGAIFVASGVDPVLTPEQSAGMIPAEPGESALSLTSSAGVLSCQPGA
> 10 µM	VDAKLGTTRLTVSNSLFTQHQFVLLFGAGDENIEDRGMLATVAFNTFTDN [AllerR4.2]
